Measured values reported in patent publication US20170081400A1 (CEPHALON, published 2017).
Residue numbers refer to the chain shown, from its start. Names may count otherwise. Each block holds one binder with its values, some of them ahead of it.

Tests used:
[1] = target: T1, human TL1A extracellular domain with N-terminal HIS and FLAG tag (human, UniProt O95150 72-251); assay: SPR Run 4, purified Ab captured on Protein A, TL1A 5 ug/mL, timepoint 44
T1 construct: the whole entry is named
T1 sequence: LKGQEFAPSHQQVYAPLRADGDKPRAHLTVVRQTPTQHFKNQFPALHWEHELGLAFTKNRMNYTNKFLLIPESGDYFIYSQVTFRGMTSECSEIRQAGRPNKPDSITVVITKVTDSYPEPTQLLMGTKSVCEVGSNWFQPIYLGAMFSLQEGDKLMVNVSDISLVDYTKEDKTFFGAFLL
Text: (§1) 1.5. Antibody expression and antigen binding as determined by SPR. Using a CM5 sensor chip (GE Healthcare) Protein A (Pierce) was coupled to the chip surface using an amine coupling kit (GE Healthcare). Protein A was coupled on flow cell 1 and 2 (or alternatively 3 and 4) using a BIACORE® T200. […] The amount of supernatant or purified protein (as well as the concentration) injected during the capture stage varied between runs and is specified in the header of the Tables 3-11. At the end of injection of the supernatant or purified antibody the change in response units was measured. This value was reported as Capture Level in Tables 3-11. […] The response units were measured prior to the end of the dissociation phase. […] The sensorgrams were double referenced (flow cell 2 is subtracted from flow cell 1 and a buffer blank). As there were a large number of antibody variants to screen, these were screened across different runs (Tables 3-11). […] A summary of the conditions used in each run is below:
(§2) 2.1. […] In some experiment the antibodies were purified using Protein A chromatography (See 1.4) and purified antibodies were used in BIACORE® (GE Healthcare) experiments.

[2] = target: T1, human TL1A extracellular domain with …; assay: SPR Run 4, purified Ab captured on Protein A, TL1A 5 ug/mL, timepoint 220
Text: as §1, §2

[3] = target: T1, human TL1A extracellular domain with …; assay: SPR Run 5, Ab from supernatant captured on Protein A, TL1A 5 ug/mL, timepoint 44
Text: as §1, §2

[4] = target: T1, human TL1A extracellular domain with …; assay: SPR Run 5, Ab from supernatant captured on Protein A, TL1A 5 ug/mL, timepoint 220
Text: as §1, §2

B1: 320-315 (antibody, human IgG1, name in Kabat numbering, V domains shown)
VH: QVQLVQSGAEVKKPGASVKVSCKASGYTFTSYDINWVRQAPGQGLEWMGWLNPNSGNTGYAQKFQGRVTMTADRSTSTAYMELSSLRSEDTAVYYCAREVPETAAFEYWGQGTLVTVSS
VL: QSVLTQPPSVSGAPGQRVTISCTSSSSDIGAGLGVHWYQQLPGTAPKLLIEGYYNRPSGVPDRFSGSKSGTSASLTITGLLPEDEGDYYCLSYDGTLSALFGGGTKLTVLG
notes: human IgG1, lambda
TL1A Binding Level (Early) [1]: 85 RU
TL1A Binding Level (Late) [2]: 82 RU

B4: 320-341 (antibody, human IgG1, name in Kabat numbering, V domains shown)
VH: B1 VH
VL: B1 VL with L91Q, G95S
notes: human IgG1, lambda
TL1A Binding Level (Early) [1]: 149 RU
TL1A Binding Level (Late) [2]: 135 RU

B6: 320-343 (antibody, human IgG1, name in Kabat numbering, V domains shown)
VH: B1 VH
VL: B1 VL with L91Q, G95D
notes: human IgG1, lambda
TL1A Binding Level (Early) [1]: 121 RU
TL1A Binding Level (Late) [2]: 90 RU

B7: 320-331 (antibody, human IgG1, name in Kabat numbering, V domains shown)
VH: B1 VH
VL: B1 VL with L91Q, Y93W
notes: human IgG1, lambda
TL1A Binding Level (Early) [1]: 173 RU
TL1A Binding Level (Late) [2]: 176 RU

B10: 320-320 (antibody, human IgG1, name in Kabat numbering, V domains shown)
VH: B1 VH
VL: B1 VL with L91Q, S92D
notes: human IgG1, lambda
TL1A Binding Level (Early) [1]: 31 RU
TL1A Binding Level (Late) [2]: 17 RU

B12: 320-327 (antibody, human IgG1, name in Kabat numbering, V domains shown)
VH: B1 VH
VL: B1 VL with L91Q, Y93Q
notes: human IgG1, lambda
TL1A Binding Level (Early) [1]: 130 RU
TL1A Binding Level (Late) [2]: 119 RU

B13: 320-337 (antibody, human IgG1, name in Kabat numbering, V domains shown)
VH: B1 VH
VL: B1 VL with L91Q, D94L
notes: human IgG1, lambda
TL1A Binding Level (Early) [1]: 21 RU
TL1A Binding Level (Late) [2]: 15 RU

B14: 320-317 (antibody, human IgG1, name in Kabat numbering, V domains shown)
VH: B1 VH
VL: B1 VL with L91Y
notes: human IgG1, lambda
TL1A Binding Level (Early) [1]: 86 RU
TL1A Binding Level (Late) [2]: 83 RU

B16: 320-333 (antibody, human IgG1, name in Kabat numbering, V domains shown)
VH: B1 VH
VL: B1 VL with L91Q, D94S
notes: human IgG1, lambda
TL1A Binding Level (Early) [1]: 95 RU
TL1A Binding Level (Late) [2]: 67 RU

B17: 320-332 (antibody, human IgG1, name in Kabat numbering, V domains shown)
VH: B1 VH
VL: B1 VL with L91Q, D94A
notes: human IgG1, lambda
TL1A Binding Level (Early) [1]: 66 RU
TL1A Binding Level (Late) [2]: 44 RU

B23: 320-342 (antibody, human IgG1, name in Kabat numbering, V domains shown)
VH: B1 VH
VL: B1 VL with L91Q, G95Q
notes: human IgG1, lambda
TL1A Binding Level (Early) [1]: 152 RU
TL1A Binding Level (Late) [2]: 139 RU

B25: 320-330 (antibody, human IgG1, name in Kabat numbering, V domains shown)
VH: B1 VH
VL: B1 VL with L91Q, Y93L
notes: human IgG1, lambda
TL1A Binding Level (Early) [1]: 139 RU
TL1A Binding Level (Late) [2]: 119 RU

B30: 320-340 (antibody, human IgG1, name in Kabat numbering, V domains shown)
VH: B1 VH
VL: B1 VL with L91Q, G95A
notes: human IgG1, lambda
TL1A Binding Level (Early) [1]: 145 RU
TL1A Binding Level (Late) [2]: 132 RU

B31: 320-319 (antibody, human IgG1, name in Kabat numbering, V domains shown)
VH: B1 VH
VL: B1 VL with L91Q, S92Q
notes: human IgG1, lambda
TL1A Binding Level (Early) [1]: 18 RU
TL1A Binding Level (Late) [2]: 14 RU

B32: 320-325 (antibody, human IgG1, name in Kabat numbering, V domains shown)
VH: B1 VH
VL: B1 VL with L91Q, Y93A
notes: human IgG1, lambda
TL1A Binding Level (Early) [1]: 95 RU
TL1A Binding Level (Late) [2]: 83 RU

B33: 320-316 (antibody, human IgG1, name in Kabat numbering, V domains shown)
VH: B1 VH
VL: B1 VL with L91W
notes: human IgG1, lambda
TL1A Binding Level (Early) [1]: 65 RU
TL1A Binding Level (Late) [2]: 62 RU

Continued, values first:

TL1A Binding Level (Early) [3]: 9 RU
TL1A Binding Level (Late) [4]: 8 RU
B2: 320-421 (antibody, human IgG1, V domains shown)
VH: B1 VH with F29Y
VL: QSVLTQPPSVSGAPGQRVTISCTSSSSDIGAGLGVHWYQQLPGTAPKLLIEGYYNRPSGVPDRFSGSKSGTSASLTITGLLPEDEGDYYCQSYDGTLSALFGGGTKLTVL
notes: human IgG1, lambda; the other rows have T at 28 and F at 29, so F29Y is probably meant

TL1A Binding Level (Early) [1]: 130 RU
TL1A Binding Level (Late) [2]: 118 RU
B3: 320-350 (antibody, human IgG1, name in Kabat numbering, V domains shown)
VH: B1 VH
VL: B1 VL with L91Q, T96S
notes: human IgG1, lambda

TL1A Binding Level (Early) [1]: 101 RU
TL1A Binding Level (Late) [2]: 63 RU
B5: 320-352 (antibody, human IgG1, name in Kabat numbering, V domains shown)
VH: B1 VH
VL: B1 VL with L91Q, T96D
notes: human IgG1, lambda

TL1A Binding Level (Early) [1]: 144 RU
TL1A Binding Level (Late) [2]: 127 RU
B8: 320-348 (antibody, human IgG1, name in Kabat numbering, V domains shown)
VH: B1 VH
VL: B1 VL with L91Q, G95Y
notes: human IgG1, lambda

TL1A Binding Level (Early) [1]: 126 RU
TL1A Binding Level (Late) [2]: 107 RU
B9: 320-346 (antibody, human IgG1, name in Kabat numbering, V domains shown)
VH: B1 VH
VL: B1 VL with L91Q, G95L
notes: human IgG1, lambda

TL1A Binding Level (Early) [1]: 112 RU
TL1A Binding Level (Late) [2]: 88 RU
B11: 320-349 (antibody, human IgG1, name in Kabat numbering, V domains shown)
VH: B1 VH
VL: B1 VL with L91Q, T96A
notes: human IgG1, lambda

TL1A Binding Level (Early) [1]: 97 RU
TL1A Binding Level (Late) [2]: 73 RU
B15: 320-353 (antibody, human IgG1, name in Kabat numbering, V domains shown)
VH: B1 VH
VL: B1 VL with L91Q, T96H
notes: human IgG1, lambda

TL1A Binding Level (Early) [1]: 102 RU
TL1A Binding Level (Late) [2]: 76 RU
B18: 320-355 (antibody, human IgG1, name in Kabat numbering, V domains shown)
VH: B1 VH
VL: B1 VL with L91Q, T96L
notes: human IgG1, lambda

TL1A Binding Level (Early) [3]: 6 RU
TL1A Binding Level (Late) [4]: 6 RU
B19: 320-430 (antibody, human IgG1, name in Kabat numbering, V domains shown)
VH: B1 VH with T30Y
VL: B1 VL with L91Q
notes: human IgG1, lambda

TL1A Binding Level (Early) [1]: 117 RU
TL1A Binding Level (Late) [2]: 87 RU
B20: 320-344 (antibody, human IgG1, name in Kabat numbering, V domains shown)
VH: B1 VH
VL: B1 VL with L91Q, G95H
notes: human IgG1, lambda

TL1A Binding Level (Early) [3]: 6 RU
TL1A Binding Level (Late) [4]: 6 RU
B21: 320-431 (antibody, human IgG1, name in Kabat numbering, V domains shown)
VH: B1 VH with S31A
VL: B1 VL with L91Q
notes: human IgG1, lambda

TL1A Binding Level (Early) [1]: 149 RU
TL1A Binding Level (Late) [2]: 130 RU
B22: 320-347 (antibody, human IgG1, name in Kabat numbering, V domains shown)
VH: B1 VH
VL: B1 VL with L91Q, G95W
notes: human IgG1, lambda

TL1A Binding Level (Early) [1]: 109 RU
TL1A Binding Level (Late) [2]: 86 RU
B24: 320-356 (antibody, human IgG1, name in Kabat numbering, V domains shown)
VH: B1 VH
VL: B1 VL with L91Q, T96W
notes: human IgG1, lambda

TL1A Binding Level (Early) [1]: 119 RU
TL1A Binding Level (Late) [2]: 91 RU
B26: 320-357 (antibody, human IgG1, name in Kabat numbering, V domains shown)
VH: B1 VH
VL: B1 VL with L91Q, T96Y
notes: human IgG1, lambda

TL1A Binding Level (Early) [1]: 82 RU
TL1A Binding Level (Late) [2]: 50 RU
B27: 320-358 (antibody, human IgG1, name in Kabat numbering, V domains shown)
VH: B1 VH
VL: B1 VL with L91Q, L97A
notes: human IgG1, lambda

TL1A Binding Level (Early) [1]: 53 RU
TL1A Binding Level (Late) [2]: 30 RU
B28: 320-354 (antibody, human IgG1, name in Kabat numbering, V domains shown)
VH: B1 VH
VL: B1 VL with L91Q, T96K
notes: human IgG1, lambda

TL1A Binding Level (Early) [1]: 112 RU
TL1A Binding Level (Late) [2]: 83 RU
B29: 320-351 (antibody, human IgG1, name in Kabat numbering, V domains shown)
VH: B1 VH
VL: B1 VL with L91Q, T96Q
notes: human IgG1, lambda
